According to the supplement of paper PMC9170038:

Tested on: MS2 coat protein
Assay: apparent KD of MS2 coat protein; designed switch direction (-1 OFF switch, 1 ON switch): -1; higher = weaker reporter binding
How it was run: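 RNA switches sharing common flanks were transcribed by stalled E. coli RNA polymerase on Illumina chips. A doubling series of SNAP-549-labelled MS2 coat protein, from 0.7 or 1.5 nM to 3 µM, was applied in Tris-HCl pH 7.5 buffer with KCl, MgCl2, BSA, DTT, tRNA and Tween-20. Each step lasted 0.8–1.5 h at the bottom of the series and 10–20 min at the top. Normalised cluster fluorescence was curve-fitted, giving apparent KD as the per-design median over clusters.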

[1] = Eterna round: R95, input ligand: microRNA oligo, concentration not stated
[2] = input ligand: microRNA oligo, concentration not stated
[3] = Eterna round: R95, input ligand: FMN 200 uM
[4] = Eterna round: R95, input ligand: none

Sequence | apparent KD of MS2 coat protein (input ligand: FMN 200 uM) [µM] | apparent KD of MS2 coat protein (input ligand: none) [µM] | further results
UCGGCGCGAGGAUAUACGUUUGCUUUUUUUCGUUUUUGUGUACAUGAGGAUCACCCAUGUAGAAGGCGCGCCGC [Apr-15 SS2-20] (puzzle: Exclusion 2) | – | – | apparent KD of MS2 coat protein [1]: 0.0146 µM
AAAUUGUGAGGAUAUUCGUAGUACACGGAGACGUGUAUUACGGAGAAGGCACAUGAGGAUCACCCAUGUUCCUU [jl-ex4-13 Eli mod] (Eterna round: R97, puzzle: Exclusion 4) | 0.103 | 0.0191 | –
ACAUGUUAUUUAGGAUAUUGGACACAUGAGGAUCACCCAUGUACCCGGAGGCUUUACUAUGAGUUCGAGAAGGAGAUGUACAUG [Ex NG2 #70] (Eterna round: R96, puzzle: Exclusion NG 2) | 0.0893 | 0.0756 | apparent KD of MS2 coat protein [2]: 0.0593 µM
CGAUGCUCGUGUCCACAUGAGGAUCACCCAUGUCGAGUUAGCGAGGAUAUCGGUGACACAUAGUACGAGAAGGCGCGAACCUGA [Ex NG3 #26] (Eterna round: R96, puzzle: Exclusion NG 3) | 0.0543 | 0.0322 | apparent KD of MS2 coat protein [2]: 0.021 µM
ACUUAUAGAGGAUAUACAGAUUAUUACAUGAGGAUCACCCAUGUUCUUCAAUGUAUAUAUGUAGAAGGCUAAGGAU [Mat - Exclusion 5 - JL Mod - D8] (Eterna round: R97, puzzle: Exclusion 5) | 0.192 | 0.0759 | –
AGUCGAAAGACAAAUAAAAACAUGAGGAUCACCCAUGUAAUGGGUGAAAACAAGCUCACCGUUCGUCUUAAAGAAAA [JL turnoff v1 57] (Eterna round: R96, puzzle: Sensor v2, turn-off variant) | 0.607 | 0.302 | apparent KD of MS2 coat protein [2]: 0.0407 µM
UGAUCUUGUGUCAGGAUAUGCUGGUCUCCUCUCCAGCAGAAGGGACAUGAGGAUCACCCAUGUUCUCUCUUUUU [Magic-11] (puzzle: Brourd's mod of Exclusion 4) | – | – | apparent KD of MS2 coat protein [1]: 0.0115 µM
GAUCCUUCUGUUAGGAUAUGCUUUGGGCUUCCGCAGCAGAAGGAACAUGAGGAUCACCCAUGUCAAAUAAAAUC [salish99_bmex4_r4_501] (Eterna round: R97, puzzle: Brourd's mod of Exclusion 4) | 0.0255 | 0.0271 | –
UCCUCACAUGAGGAUCACCCAUGUGAGGAUAUCAUGCUUCGUAGUAAACUACGAAGUGUGAGAAGGCGCAUGGC [Omei Ex1 D16] (Eterna round: R97, puzzle: Exclusion 1) | 0.0204 | 0.0162 | –
GUCAGCUCGUCAGGAUAUAUAUACAUGAGGAUCACCCAUGUAAGAUCAGGCUUCGGCCAAUGUAUAUAGAAGGGACGAGCUGAC [ENG2/11-B1] (Eterna round: R96, puzzle: Exclusion NG 2) | 0.5 | 0.716 | apparent KD of MS2 coat protein [2]: 0.691 µM
AAGAAACAUGAGGAUCACCCAUGUGAGGAUAUGACGAAGAAAAGAAAAGAAAGAAGACUCAGAAGGCACAAAGG [salish99-ex1_r3_076] (puzzle: Exclusion 1) | – | – | apparent KD of MS2 coat protein [3]: 0.048 µM; apparent KD of MS2 coat protein [1]: 0.0267 µM; apparent KD of MS2 coat protein [4]: 0.0434 µM
GGAUCGAAUGUGAGGAUAUGCAGGUCCUUGGAUCUGCAGAAGGCACAUGAGGAUCACCCAUGUGAUACCGAUCC [Mat - Exclusion 4 - Eli Mod - D42] (Eterna round: R97, puzzle: Brourd's mod of Exclusion 4) | 0.148 | 0.455 | –
AGAGAGUCAGGAUAUCGAAGGUAGAGAAAAGGAGAGUGGUACGAGAAGGGACAUGAGGAUCACCCAUGUAGGUG [JR_Exclusion4)Sub013] (puzzle: Exclusion 4) | – | – | apparent KD of MS2 coat protein [3]: 0.343 µM; apparent KD of MS2 coat protein [1]: 0.431 µM; apparent KD of MS2 coat protein [4]: 0.441 µM
AUAUUAAUAGUAAGGAUAUGCGUAUAUGUAGUUAUGCAGAAGGUACAUGAGGAUCACCCAUGUAUUAAUGUGUA [LRO-BmodExc4-04-Oppy's Opus] (Eterna round: R97, puzzle: Brourd's mod of Exclusion 4) | 0.016 | 0.016 | –
UAUUAGUGAGGAUAUGAGUCGUAGAACAAUAGUACUACGUCUCAGAAGGUACAUGAGGAUCACCCAUGUUUCUC [Fiskers Ex 4 Super Stable 44 mod 33] (puzzle: Exclusion 4) | – | – | apparent KD of MS2 coat protein [1]: 0.0188 µM
AGUAACAGAGGAUAUACUAUUUUAUGUGUUUGUUAUUUUAAACAUGAGGAUCACCCAUGUAGAAGGCUGAAUGA [JMF 100] (puzzle: Exclusion 2) | – | – | apparent KD of MS2 coat protein [1]: 0.0235 µM
CUGUACUAAGGAUAUACAUGAGGAUCACCCAUGUCGAUGGUAGGCUGACCGUGACUCCGUAGAAGGUAGAUUCC [Eternabot (L1) Solution 77] (Eterna round: R97, puzzle: Exclusion 3) | 0.1 | 0.0815 | –

Sequence | apparent KD of MS2 coat protein (input ligand: FMN 200 uM) [µM] | apparent KD of MS2 coat protein (input ligand: none) [µM] | further results
CGCCUACAUGAGGAUCACCCAUGUGAGGAUAUCCUGCGAGGAUCAAAAGAUCCUCGUGGGAGAAGGCGCCUGGA [Omei Ex1 B6] (Eterna round: R97, puzzle: Exclusion 1) | 0.0376 | 0.0131 | –
CUGUGCACGCUGCGGUCCUACAUGAGGAUCACCCAUGUGGUCUGGUGGCGUGGGUCACCGGACUUGGCUCGUCUUGA [salish99_S_TOV1_R5_065] (Eterna round: R97, puzzle: Sensor, turn-off variant 1) | 0.0448 | 0.0493 | –
ACUUCACAUGAGGAUCACCCAUGUGAGGAUAUCGUCGAGGAUGUAAUGCCAUCCGUGGCGAGAAGGCGCAUGGG [Exclusion 1 (Mod1.1 solution 40 by Eternabot)] (Eterna round: R97, puzzle: Exclusion 1) | 0.0285 | 0.0798 | –
GUCUGGCUAGGAUAUACAGUGUCCACAAGUUAGUUACCCUAACAUGAGGAUCACCCAUGUAGAAGGAGUGAGAA [Revebeed] (Eterna round: R96, puzzle: Exclusion 2) | 0.355 | 0.0454 | apparent KD of MS2 coat protein [2]: 0.0347 µM
UAAUACAAGUAGAGAUUCUACAUGAGGAUCACCCAUGUGCUCGUCUUAUAAAGUACUAUCACGAAAGUGAUAGUACA [Mat - Sensor v3 - turn-off var 1 - Eli Mod - D97] (Eterna round: R96, puzzle: Sensor v3, turn-off variant 1) | 0.0221 | 0.0224 | apparent KD of MS2 coat protein [2]: 0.124 µM
GGCACACAUGAGGAUCACCCAUGUGAGGAUAUGAGGCGAUCGUCGAAAGACGAUAGCCUCAGAAGGCACAUGCC [Eli x1 4.10] (Eterna round: R97, puzzle: Exclusion 1) | 0.0429 | 0.016 | –
AGCUGUGGCCGAGGAUAUCCAGCCUUAAAUACCGACGUAUAGUCGGACAUGAGGAUCACCCAUGUGGAGAAGGCGGUCUCAGCA [Eli eng2 - 045] (Eterna round: R96, puzzle: Exclusion NG 2) | 0.126 | 0.0436 | apparent KD of MS2 coat protein [2]: 0.0364 µM
CGUGACUCAGGAUAUCUAUAAUAUCACAUGAGGAUCACCCAUGUCCAGCGAAAGCUGGAGAGAGAAGGGAGUCACG [Fiskers Ex 5 - 36] (puzzle: Exclusion 5) | – | – | apparent KD of MS2 coat protein [3]: 0.0677 µM; apparent KD of MS2 coat protein [1]: 0.0673 µM; apparent KD of MS2 coat protein [4]: 0.0615 µM
ACUUGUAGAGGAUAUACGAGGGCCCAAGCGGCGAGAGCCGCACAUGAGGAUCACCCAUGUAGAAGGCUACUAUU [JL-ex2-4.25 ViennaUCT mod] (Eterna round: R97, puzzle: Exclusion 2) | 0.374 | 0.116 | –
CCUAAACAUGAGGAUCACCCAUGUGAGGAUAUGAUGCAGCAGUGGUCUACGCUGUGCAUCAGAAGGUACAUGGU (puzzle: Exclusion 1) | – | – | apparent KD of MS2 coat protein [1]: 0.0734 µM
CCGAAAUCCUAGGAUAUGCUAGACGAAAGUCUAGCAGAAGGAGGAACAUGAGGAUCACCCAUGUGUCCUAUCGG [Mat - Exclusion 6 - Eli Mod - D30] (Eterna round: R97, puzzle: Exclusion 6) | 0.0231 | 0.0158 | –
CAGUACUGAGGAUAUACAUGAGGAUCACCCAUGUGUCUAAUAUUAGGAAACUAGGUAUGUAGAAGGCAGUACUG [Omei Ex3 Mod of Eli 4.27 v6] (Eterna round: R97, puzzle: Exclusion 3) | 0.318 | 0.0361 | –
AUAACCGAAGGAUAUAGUCGUGAGGACAUGAGGAUCACCCAUGUGUUUCAGAUAGUCCCACUAGAAGGUCGGCGUC [Eternabot (L2) Solution 29] (Eterna round: R97, puzzle: Exclusion 5) | 0.11 | 0.0672 | –
GGGACACAUGAGGAUCACCCAUGUGAGGAUAUGUUAGUUUCGGCCAAAGCCGAAAUUAACAGAAGGCACAUACC [JR_Exclusion1_Sub020] (puzzle: Exclusion 1) | – | – | apparent KD of MS2 coat protein [1]: 0.0357 µM
CAGAACAGAGGAUAUACAUGAGGAUCACCCAUGUGUUCCAGCUAGGAGACUAGCAUAUGUAGAAGGCUGUUCUG [Mat - Exclusion 3 - JL Mod - D12] (Eterna round: R97, puzzle: Exclusion 3) | 0.0877 | 0.161 | –
UCAUGCUAAGGAUAUGACGUCGGCUACAUGAGGAUCACCCAUGUGGGUUCGUUAUGGCCAUUAGAAGGUAGCGAUU [Eternabot (L2) Solution 95] (Eterna round: R97, puzzle: Exclusion 5) | 0.0178 | – | –
AAUAAUAAAGUGAGGAUAUCUAGAGCCUCGGCUCUAGAGAAGGCACAUGAGGAUCACCCAUGUCUCAAUAAUAA [BmEx4/1-C5] (Eterna round: R97, puzzle: Brourd's mod of Exclusion 4) | 0.0605 | 0.0213 | –
